In patent US7923230:

Legend:
Amyloid beta (1-40) = experiment: SPR (BIAcore); SLF-CR pre-incubated with FKBP passed over immobilized Aβ(1-40); SLF-CR alone gave ~140 RUs; ternary FKBP/drug/Aβ complex
Amyloid beta (1-42) = experiment: cell-based or functional assay
Chain of Amyloid beta (1-42) (peptide, as listed by the source): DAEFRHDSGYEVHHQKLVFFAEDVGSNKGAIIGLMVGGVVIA

Chain of Amyloid beta (1-40) (peptide, as listed by the source): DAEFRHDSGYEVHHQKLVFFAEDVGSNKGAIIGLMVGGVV

| Substance | SPR response (Amyloid beta (1-40)) | IC50 in thioflavin T aggregation assay (drug concentration, FKBP 1 uM) (Amyloid beta (1-42)) |
| --- | --- | --- |
| FKBP12 pre-incubated with the bifunctional compound SLF-CR (SLF-Congo red) (from UniProt P62942 2-108) (enzyme) | 230 RU |  |
| FKBP12 with the bifunctional compound SLF-Benz-CR (from UniProt P62942 2-108) (enzyme) |  | 50 nM |
